This note sets out measurements from patent US20160177307.

For data set [1], the system named is T1, VEGF-165 (Homo sapiens), P15692-4.
T1 sequence: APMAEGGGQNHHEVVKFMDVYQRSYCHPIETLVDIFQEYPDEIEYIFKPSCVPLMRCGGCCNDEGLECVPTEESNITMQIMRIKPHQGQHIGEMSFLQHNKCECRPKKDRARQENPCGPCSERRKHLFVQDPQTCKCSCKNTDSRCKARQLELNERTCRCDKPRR
The data set can be described thus: filter.

The target of data set [2] is PDGF-BB (platelet-derived growth factor BB) (Homo sapiens) (UniProt P01127). The data set can be described thus: filter.
Data set [3] relates to T2, VEGF-121 (Homo sapiens), P15692-9.
T2 sequence: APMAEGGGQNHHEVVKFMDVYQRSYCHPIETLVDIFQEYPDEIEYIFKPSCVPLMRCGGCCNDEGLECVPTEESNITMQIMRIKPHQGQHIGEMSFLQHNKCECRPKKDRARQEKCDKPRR
The data set can be described thus: filter.

For data set [4], the system named is T3, VEGF-164 (Rattus norvegicus), P16612-2.
T3 sequence: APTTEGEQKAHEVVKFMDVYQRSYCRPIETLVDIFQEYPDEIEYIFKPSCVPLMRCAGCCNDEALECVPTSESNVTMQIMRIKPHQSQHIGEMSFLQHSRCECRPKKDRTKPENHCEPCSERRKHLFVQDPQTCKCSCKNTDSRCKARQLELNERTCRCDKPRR
The data set can be described thus: filter. The settings on record: P=Nap-dU.

A further data set addresses PDGF-AB (UniProt P04085+P01127). The data set can be described thus: filter.
The next data set concerns T4, rVEGF164, P16612-2.
T4 sequence: T3 sequence
The data set can be described thus: filter. The settings on record: rest DNA, SB18T, 37 C.

The subject of data set [5] is T2, VEGF-121 (Homo sapiens), P15692-9. The data set can be described thus: cell_activity. The settings on record: NapdU at P, VEGFR2 phosphorylation, HUVEC.
The test system is the same in data set [6]. The data set can be described thus: competition. Particulars: Nap-dU, 2'-OMe; head-to-tail dimer, no linker; VEGF isoform not given.
The target of data set [7] is PDGF-BB (platelet-derived growth factor BB) (Homo sapiens) (UniProt P01127). The data set can be described thus: cell_activity.
Data set [8] shares this target. The data set can be described thus: competition.
The mark [9] stands for this setting: all P are NapdU, rest DNA, SB18T, 37 C.
Setting [10] is: NapdU at 6,7,12,15,16,18,23,24,25,29, rest DNA, SB18T, 37 C.
Where [11] appears, read: Z BndU, P NapdU, 2'-OMe at superscript-1 positions, C3 spacers, three Heg linkers.

A word on the Kd: it is the free concentration of one partner at which half of the binding sites on the other are occupied at equilibrium, for simple one-to-one binding. Low values mean tighter binding, high ones weaker binding. As usually defined, the IC50 is the concentration that inhibits the measured activity by half. Low values mean inhibition by little substance, high ones a need for much substance. The Ki is the dissociation constant of the complex between target and ligand, obtained from inhibition or displacement.

Sequence of PDGF-BB (platelet-derived growth factor BB) (Homo sapiens) (P01127 82-190): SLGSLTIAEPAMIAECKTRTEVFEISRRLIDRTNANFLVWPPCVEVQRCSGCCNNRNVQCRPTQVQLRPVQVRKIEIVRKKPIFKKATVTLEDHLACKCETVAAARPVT
Sequence of PDGF-AB (P01127 82-190, chain 2 of 2, other chains not shown): as the sequence (P01127 82-190) above

In the case of “AGCCGTTCAAGTGCTTGTAGGATTTAAATGG [4867-31_51]”, the Kd in data set [1] (P=Nap-dU, VEGF) was 0.196 nM; in data set [1] (setting [9]) it was 0.11 nM; in data set [2] (all P are NapdU, rest DNA, specificity control), 126 nM; in data set [3] (all P are NapdU, rest DNA, SB18T, 37 C, Table 18 gives 728 pM), 0.2 nM; in data set [4], 0.074 nM; with PDGF-AB (P=Nap-dU) it was 14.8 nM.
On to “AGCCGTTCAAGTGCTTGTAGGATTTAAATGGA [4867-31_43]”, for which the Kd in data set [1] (setting [10]) came out at 0.05 nM; in [3] (setting [10]), 0.29 nM; in the data set with rVEGF164, P16612-2 (NapdU at 6,7,12,15,16,18,23,24,25,29), 0.05 nM. The sequence further yielded an IC50 in data set [5] of 2.2 nM.
“CAGCCGTTCAAGTGCTTGTAGGATTTAAA [4867-31_47]” showed a Kd with rVEGF164, P16612-2 (all P are NapdU) of 83 nM. This counts as double-digit nanomolar.
Turning to “CAGCCGTTCAAGTGCTTGTAGGATTTAAAT [4867-31_46]”, the Kd is 5.9 nM in [1] (setting [9]) and 9.6 nM in the data set on rVEGF164, P16612-2 (all P are NapdU).
Consider “CAGCCGTTCAAGTGCTTGTAGGATTTAAATGGA [4867-31_42]”, for which the Kd in data set [1] (setting [9]) is 0.071 nM; in [3] (setting [9]), 0.2 nM; with rVEGF164, P16612-2 (all P are NapdU), 0.05 nM.
As for “CCGTTCAAGTGCTTGTAGGATTTAAATGG [4867-31_192]”, the Kd was 0.041 nM in data set [1] (NapdU at 4,5,10,13,14,16,21,23,27, 2'-OMe at C6,G9,C12,G15,A17,G18,G28,G29 and 2'-OMe-NapU22, 3'-inverted dT in Tables 26-27, 5'-OH form); 57 nM in [2] (NapdU at 4,5,10,13,14,16,21,23,27, 2'-OMe at C6,G9,C12,G15,A17,G18,G28,G29 and 2'-OMe-NapU22, 3'-inverted dT in Tables 26-27, specificity control, off-target PDGF-BB); 0.011 nM in [3] (NapdU at 4,5,10,13,14,16,21,23,27, 2'-OMe at C6,G9,C12,G15,A17,G18,G28,G29 and 2'-OMe-NapU22, 3'-inverted dT in Tables 26-27, 3'-idT, Table 27 gives 3.1E-11, Table 21 2.3E-11). The sequence further displayed an IC50 in data set [5] (2'-OMe 6,9,12,15,17,18,22,28,29) of 2.1 nM.
“CCGTTCAAGTGCTTGTAGGATTTAAATGGCCGTTCAAGTGCTTGTAGGATTTAAATGG [4867-31_395]” had a Ki in data set [6] of 0.0068 nM.
On to CGACAGCATGTATGCACATCT [5169-4_26], for which the Kd in data set [2] (NapdU (5-(N-naphthylmethylcarboxamide)-2'-deoxyuridine) at 9,11,13,19,21, rest DNA, SB18T, 37 C) stood at 0.017 nM. Further, the IC50 in [7] (NapdU (5-(N-naphthylmethylcarboxamide)-2'-deoxyuridine) at 9,11,13,19,21, rest DNA, inhibition of PDGFRbeta phosphorylation) was found to be 1.6 nM.
As for CGACAGCATGTATGCACATCT [5169-4_84], the Kd in [2] (NapdU at P, 2'-OMe 1,4,6,7,14,15,16,18,20,21) came out at 0.0053 nM. This sequence also came in with an IC50 in data set [7] (NapdU at P, 2'-OMe 1,4,6,7,14,15,16,18,20,21, PDGFRb phosphorylation, Hs27) of 3.3 nM.
For the sequence CGACAGCATGTATGCACATCT [5169-4_85], the Kd in data set [2] (NapdU at P, 2'-OMe 1,4,6,7,11,14-18,20,21) stood at 0.0062 nM. Moreover, in [7] (NapdU at P, 2'-OMe 1,4,6,7,11,14-18,20,21, PDGFRb phosphorylation, Hs27), the IC50 came to 7.3 nM.
Sequence CGACAGCATGTATGCACATCT [5169-4_112] registered a Kd in data set [2] (NapdU at P, 2'-OMe 14,16,21) of 0.0062 nM. Moreover, the IC50 in data set [7] (NapdU at 9,11,13,19, 2'-OMe G14,A16 and 2'-OMe-NapU21, inhibition of PDGFRbeta phosphorylation) was found to be 1 nM.
Turning to CGACAGCATGTATGCACATCT [5169-4_188], the Ki in [8] (as 5169-4_146 plus PS 3' of 4,9,10,11,12, 3'-idT, competition with 32P ligand, SB18T, 37 C) came out at 0.0086 nM.
“CGACAGCATGTATGCACATCTCGACAGCATGTATGCACATCT [5169-4_134]” returned a Ki in data set [8] (Nap-dU, head-to-tail dimer, no linker) of 0.028 nM.
“TTACGTTACACGCGTTTATAGCGCCGTTCAAGTGCTTTAGATTTAAATG [4149-8_318]”: the Kd in data set [1] (Bn-dU, Nap-dU, C3, 1 Heg linker, 2'-OMe, VEGF) was determined as 0.27 nM; in data set [2] (PDGF-1Heg-VEGF, NapdU, BndU) it was 0.0431 nM; in data set [3] (PDGF-1Heg-VEGF, NapdU, BndU) it was 2.47 nM; in the data set with PDGF-AB (PDGF-1Heg-VEGF, NapdU, BndU), 0.0818 nM.
As for “TTACGTTACACGCGTTTATAGCGCCGTTCAAGTGCTTTAGATTTAAATG [4149-8_319]”, the Kd came to 0.125 nM in data set [1] (Bn-dU, Nap-dU, C3, 2 Heg linker, 2'-OMe, VEGF); 0.0242 nM in [2] (PDGF-2Heg-VEGF, NapdU, BndU); 1.07 nM in data set [3] (PDGF-2Heg-VEGF, NapdU, BndU); 0.0302 nM with PDGF-AB (PDGF-2Heg-VEGF, NapdU, BndU).
For “TTACGTTACACGCGTTTATAGCGCCGTTCAAGTGCTTTAGATTTAAATG [4149-8_320]”, the Kd is 0.0768 nM in data set [1] (PDGF-3Heg-VEGF, NapdU, BndU); 0.015 nM in [2] (setting [11]); 0.422 nM in data set [3] (setting [11]); 0.0493 nM with PDGF-AB (PDGF-3Heg-VEGF, NapdU, BndU).
Turning to “TTACGTTACCGCGTTTATAGCGCCGTTCAAGTGCTTGTAGGATTTAAATGG [4149-8_401 (PDGF_379-HHH-VEGF_192)]”, the Kd in [1] (Z BndU, P NapdU, M MBndU, superscript 1 2'-OMe, C3 spacer, Heg linkers, 5'-amine, Table 20 gives 2.77E-10) was determined as 0.025 nM; in data set [2] (Z BndU, P NapdU, M MBndU, superscript 1 2'-OMe, C3 spacer, Heg linkers, 5'-amine, Table 20 gives 1.51E-11), 0.0056 nM; in [3] (Z BndU, P NapdU, M MBndU, superscript 1 2'-OMe, C3 spacer, Heg linkers, 5'-amine, Table 20 gives 3.74E-11), 0.027 nM; with PDGF-AB (Z BndU, P NapdU, M MBndU, superscript 1 2'-OMe, C3 spacer, Heg linkers, 5'-amine), 0.193 nM.
